Substrate in data set [1]: NCC(=O)N[C@@H](CCC(N)=O)C(=O)O
Kind of data set: two-electrode voltage clamp, transport current in Xenopus oocytes. It counts as cell-based, Danio rerio. To be noted: pH 6.5, -60 mV, NaCl buffer, proton-coupled. From the text:
two-electrode voltage clamp, transport current in Xenopus oocytes on zebrafish PepT1a (Slc15a1a)

Substrate in data set [2]: NCC(=O)N[C@@H](CCC(N)=O)C(=O)O
Described as above. The format is cell-based, Danio rerio. To be noted: pH 6.5, -60 mV, NaCl buffer, proton-coupled. The text has this:
two-electrode voltage clamp, transport current in Xenopus oocytes on zebrafish PepT1b (Slc15a1b)
This is another data set of the same source.

K0.5 data for two proteins are collected here from paper PMC6923934, “The peptide transporter 1a of the zebrafish Danio rerio, an emerging model in nutrigenomics and nutrition research: molecular characterization, functional properties, and expression analysis” (Genes & Nutrition, 2019).

B1: zebrafish PepT1a (Slc15a1a) (Danio rerio) (protein)
chain: MPDSKMDETKKKKKKTAECCGYPISIFFIVVNEFCERFSYYGMRAVLVLYFRYFLLWDDDLATSIYHAFVALCYLTPILGAIIADSWLGKFKTIIYLSIVYAVGQVVMAVSTIHDITDANRDGTPDNFTLHIALSMLGLVLIALGTGGIKPCVAAFGGDQFQEHQSRQLNTFFSVFYLCINAGSLLSTLITPVLRAQECGIHTQQQCYPLAFGVPAALMVVSLVVFIAGSGMYTKTAPEGNIMGSVCKCIWFALNNRFRHRSDIYPKREHWMDWAEEKYDKLLIAQIKMVLKVLFLYIPLPMFWTLFDQKGSRWTLQATTMTGDFGGFVLQPDQMQTVNPILILTLVPIMDRIIFPLIKKCGLNFSPLKRMTVGMLFAATAFIAAALVQMEIDKTLPNFPSSSESQLKVVNMHSESLIVTVPSQEPLLIGSFESSPDYITFDQQDIRLAFNTTPEINKDLSLIKGSRQTLIIPSEPAEMYLKEDIKSKPKEGKNAVRFVNGWTAYLNITNLESSLQPSETSNYTLVSQGMRKFTLTDGIQSCEFSRKFGFGSSYTFLIPSDLFSTDCESIKEIEDMQPNSVHMALQIPQYFLITTGEVMFSVTGLQFSYSQAPKNMKSVLQAGWLCTNAVGNIIVLIVAELGKLPKQWAEYVLFASLLVAVSIIFSIMAYFYTYIDPAEIEAEILKQQETDPDKKKKKETLEMEEKENEQEIKQTKI
notes: full-length cDNA cloned from zebrafish intestine, 717 residues, pSPORT1, cRNA in Xenopus laevis oocytes; untagged
With B1, the K0.5 in data set [1] is 0.24 ± 0.07 mmol/L.

B2: zebrafish PepT1b (Slc15a1b) (Danio rerio) (protein)
chain: MADKEGHKQKKERASCFGYPVSIFFIVVNEFCERFSYYGMKAVLVLYFKYFIGWDDDLSTTIYHTFVALCYLTPIMGAIIADSWLGKFKTIVYLSIVYTIGQVIMAISAIHDITDANRDGKPDNKTLHISLSMLGLILIALGTGGIKPCVAAFGGDQFEDHQEKQRSTFFSIFYLSINAGSLLSTLITPILRSQECGIYAKQSCYPLAFGVPAALMVVALIVFVIGHKMYIMESPKGNILLQVINCIGFALNNRFRHRGKQYPKREHWMDWAEEKYDKLLIAQVKMVVKVLFLYIPLPMFWALFDQQGSRWTIQATTMDGNFGGFVIQPDQMQIVNPILIVIMVPIMDSAIYPLIKLCRINFTPLRKMTVGMVLAALAFVAAALLQLQIDETMPKFPSTSQTQLKFLNVESTSLPVVVEGQDQFMVPGFNASSEYLTLDKENVTISAGGVNDTAFLKTGTRHTVLMNAAGMRNTLDDLTEKPEQGLNAIRFVNGWENRLNVSVKSDNVHADPLDASVYLLVPHGKVNFTIFDGGDGKCHYIMQLGFGSTYTVLIPSTFAFGQTCSESFEAVQDMEPNRIHMAWQVIQYFLLTCGEVVYSVTGLDFSYSQAPSNMKSVLQAGWLLTVAVGNIIVLIVAEAGSLPDQWAEYLLFASLLVAVSIIFAIMAYFYTYIDPNEIEAKFKELEPEDKKRKEMQMTAKDNMAYVHNENTNIKQTKI
notes: cRNA-expressed in Xenopus laevis oocytes; construct not described here (previously cloned zebrafish PepT1)
As to B2, the K0.5 in data set [2] is 0.13 ± 0.02 mmol/L.
